# Measurements: patent US20230406885A1, “CYCLIC PEPTIDES FOR TRAPPING INTERLEUKIN-1 BETA” (MERCK SHARP & DOHME LLC, priority 2022, published 2023)
# *1 amine or outer side, *2 acyl side, *3 side chain or, on linkers, in order; H or OH if unused. [ ]: non-standard residue; d: D form. TyrEtNAc = L-tyrosine O-ethyl acetamide, (S)-3-(4-(2-acetamidoethoxy)phenyl)-2-aminopropanoic acid, CC(=O)NCCOc1ccc(C[C@H](N[*:1])C(=O)[*:2])cc1; Pro(trans-4-NH2) = O=C([C@@H]1C[C@@H](N[*:3])CN1[*:1])[*:2]; Bip(4'-COOH) = N[C@@H](Cc1ccc(-c2ccc(C(=O)O)cc2)cc1)C(=O)O; 1Nal(3S-Me) = C[C@@H](c1cccc2ccccc12)[C@H](N)C(=O)O; Phe(4-COOH) = N[C@@H](Cc1ccc(C(=O)O)cc1)C(=O)O; h3Pal(5-CN) = N#Cc1cncc(CC[C@H](N)C(=O)O)c1; hTyr = N[C@@H](CCc1ccc(O)cc1)C(=O)O; dDab = NCC[C@@H](N)C(=O)O; dNMeA = CN[C@H](C)C(=O)O; Dap = NC[C@H](N)C(=O)O
# B1: SEQ ID NO: 122 (Example No. 122) (peptide)
# peptide: cyclo([TyrEtNAc]W[Phe(4-COOH)]G[Pro(trans-4-NH2)][1Nal(3S-Me)]D[dNMeA]G[Bip(4'-COOH)]WG[dDab][h3Pal(5-CN)])
# SMILES: CC(=O)NCCOc1ccc(C[C@@H]2NC(=O)[C@H](CCc3cncc(C#N)c3)NC(=O)[C@@H](CCN)NC(=O)CNC(=O)[C@H](Cc3c[nH]c4ccccc34)NC(=O)[C@H](Cc3ccc(-c4ccc(C(=O)O)cc4)cc3)NC(=O)CNC(=O)[C@@H](C)N(C)C(=O)[C@H](CC(=O)O)NC(=O)[C@H]([C@@H](C)c3cccc4ccccc34)NC(=O)[C@@H]3C[C@@H](N)CN3C(=O)CNC(=O)[C@H](Cc3ccc(C(=O)O)cc3)NC(=O)[C@H](Cc3c[nH]c4ccccc34)NC2=O)cc1
# B2: SEQ ID NO: 123 (Example No. 123) (peptide)
# peptide: cyclo([TyrEtNAc]W[Phe(4-COOH)]G[Pro(trans-4-NH2)][1Nal(3S-Me)]D[dNMeA]G[Bip(4'-COOH)]WG[dDab][hTyr])
# SMILES: CC(=O)NCCOc1ccc(C[C@@H]2NC(=O)[C@H](CCc3ccc(O)cc3)NC(=O)[C@@H](CCN)NC(=O)CNC(=O)[C@H](Cc3c[nH]c4ccccc34)NC(=O)[C@H](Cc3ccc(-c4ccc(C(=O)O)cc4)cc3)NC(=O)CNC(=O)[C@@H](C)N(C)C(=O)[C@H](CC(=O)O)NC(=O)[C@H]([C@@H](C)c3cccc4ccccc34)NC(=O)[C@@H]3C[C@@H](N)CN3C(=O)CNC(=O)[C@H](Cc3ccc(C(=O)O)cc3)NC(=O)[C@H](Cc3c[nH]c4ccccc34)NC2=O)cc1
# B3: SEQ ID NO: 121 (Example No. 121) (peptide)
# peptide: cyclo([TyrEtNAc]W[Phe(4-COOH)]G[Pro(trans-4-NH2)][1Nal(3S-Me)]D[dNMeA]G[Bip(4'-COOH)]W[Dap][dNMeA][hTyr])
# SMILES: CC(=O)NCCOc1ccc(C[C@@H]2NC(=O)[C@H](CCc3ccc(O)cc3)NC(=O)[C@@H](C)N(C)C(=O)[C@H](CN)NC(=O)[C@H](Cc3c[nH]c4ccccc34)NC(=O)[C@H](Cc3ccc(-c4ccc(C(=O)O)cc4)cc3)NC(=O)CNC(=O)[C@@H](C)N(C)C(=O)[C@H](CC(=O)O)NC(=O)[C@H]([C@@H](C)c3cccc4ccccc34)NC(=O)[C@@H]3C[C@@H](N)CN3C(=O)CNC(=O)[C@H](Cc3ccc(C(=O)O)cc3)NC(=O)[C@H](Cc3c[nH]c4ccccc34)NC2=O)cc1
# B4: SEQ ID NO: 124 (Example No. 124) (peptide)
# peptide: cyclo([TyrEtNAc]W[Phe(4-COOH)]G[Pro(trans-4-NH2)][1Nal(3S-Me)]D[dNMeA]G[Bip(4'-COOH)]WL[dA]A)
# SMILES: CC(=O)NCCOc1ccc(C[C@@H]2NC(=O)[C@H](C)NC(=O)[C@@H](C)NC(=O)[C@H](CC(C)C)NC(=O)[C@H](Cc3c[nH]c4ccccc34)NC(=O)[C@H](Cc3ccc(-c4ccc(C(=O)O)cc4)cc3)NC(=O)CNC(=O)[C@@H](C)N(C)C(=O)[C@H](CC(=O)O)NC(=O)[C@H]([C@@H](C)c3cccc4ccccc34)NC(=O)[C@@H]3C[C@@H](N)CN3C(=O)CNC(=O)[C@H](Cc3ccc(C(=O)O)cc3)NC(=O)[C@H](Cc3c[nH]c4ccccc34)NC2=O)cc1
# B5: SEQ ID NO: 125 (Example No. 125) (peptide)
# peptide: cyclo([TyrEtNAc]W[Phe(4-COOH)]G[Pro(trans-4-NH2)][1Nal(3S-Me)]D[dNMeA]G[Bip(4'-COOH)]WL[dA][hTyr])
# SMILES: CC(=O)NCCOc1ccc(C[C@@H]2NC(=O)[C@H](CCc3ccc(O)cc3)NC(=O)[C@@H](C)NC(=O)[C@H](CC(C)C)NC(=O)[C@H](Cc3c[nH]c4ccccc34)NC(=O)[C@H](Cc3ccc(-c4ccc(C(=O)O)cc4)cc3)NC(=O)CNC(=O)[C@@H](C)N(C)C(=O)[C@H](CC(=O)O)NC(=O)[C@H]([C@@H](C)c3cccc4ccccc34)NC(=O)[C@@H]3C[C@@H](N)CN3C(=O)CNC(=O)[C@H](Cc3ccc(C(=O)O)cc3)NC(=O)[C@H](Cc3c[nH]c4ccccc34)NC2=O)cc1
# Biological target: Recombinant human IL-1β (BioLegend 579404) (human, UniProt P01584 117-269)
# Assay: cell-based or functional assay
row,MRC5 IC50,Binder
1,0.0248 nM,B1
2,0.0457 nM,B2
3,0.085 nM,B3
4,0.636 nM,B4
5,0.064 nM,B5
